The target of test [1] is Cytosolic domain of YscV (YscVC, residues 356-704), co-expressed with YscX and YscY (Yersinia enterocolitica). Description: SEC.
For test [2] the target is unchanged. The test is described as follows: crystal structure.
Test [3] deals with Cytosolic domain of YscV (YscVC, residues 356-704), purified alone (Yersinia enterocolitica). Description: SEC; analytical SEC of YscVC alone at 10, 25 and 100 µM initial concentration, Superdex 200 10/300GL, 20 mM Tris pH 8, 150 mM NaCl; monomer to nonamer. In general terms: Size exclusion chromatography separates by hydrodynamic size, large species first.

In the case of “Cytosolic domain of YscV (YscVC, residues 356-704), co-expressed with YscX and YscY (domain or fragment)”, the stoichiometry N in test [1] and in test [2] was 9 throughout. In test [3], “Cytosolic domain of YscV (YscVC, residues 356-704), purified alone (domain or fragment)” gave a stoichiometry N of 9.

In general, stoichiometry N refers to a count of units in the complex or per binding partner.
